Measured values as given in PMC5998080, “Structural and functional analysis of mRNA export regulation by the nuclear pore complex” (Nature Communications, 2018).

Assays:
[1] = molecular target: T1, S. cerevisiae Gle1^CTD•Nup42^GBM•Dbp5 (Saccharomyces cerevisiae, UniProt P20449+Q12315); experiment: size exclusion chromatography, complex formation; type: binding; conditions: 0.5 mM IP6, 20 mM Tris pH 8.0, 100 mM NaCl, 5 mM DTT; IP6 bridges Gle1 and Dbp5
T1 construct: with Nucleoporin NUP42
T1 sequence (Q12315 243-538): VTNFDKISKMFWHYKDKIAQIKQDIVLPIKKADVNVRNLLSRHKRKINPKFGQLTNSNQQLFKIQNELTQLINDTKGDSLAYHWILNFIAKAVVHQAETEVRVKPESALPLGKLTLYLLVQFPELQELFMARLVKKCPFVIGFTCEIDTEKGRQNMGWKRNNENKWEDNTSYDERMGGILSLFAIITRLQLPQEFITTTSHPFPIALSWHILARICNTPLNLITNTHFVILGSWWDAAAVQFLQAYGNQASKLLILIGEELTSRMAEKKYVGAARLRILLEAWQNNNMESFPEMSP
T1 sequence (P20449 1-482): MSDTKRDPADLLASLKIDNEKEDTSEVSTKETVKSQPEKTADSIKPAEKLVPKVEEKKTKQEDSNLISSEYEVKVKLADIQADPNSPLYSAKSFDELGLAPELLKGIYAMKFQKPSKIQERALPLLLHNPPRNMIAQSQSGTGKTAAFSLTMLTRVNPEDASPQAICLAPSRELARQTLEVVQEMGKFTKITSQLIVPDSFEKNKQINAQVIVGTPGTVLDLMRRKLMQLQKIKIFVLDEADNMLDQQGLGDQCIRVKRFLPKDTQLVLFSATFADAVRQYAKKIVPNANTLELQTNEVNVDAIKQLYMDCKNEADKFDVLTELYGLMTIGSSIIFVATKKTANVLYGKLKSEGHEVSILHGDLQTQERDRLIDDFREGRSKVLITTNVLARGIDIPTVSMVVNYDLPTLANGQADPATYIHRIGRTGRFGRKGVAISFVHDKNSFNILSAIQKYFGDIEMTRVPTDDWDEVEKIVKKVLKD
T1 sequence (P49686 397-430 partner): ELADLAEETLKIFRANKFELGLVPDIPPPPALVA

[2] = molecular target: T2, S. cerevisiae Gle1^CTD•Nup42^GBM (Saccharomyces cerevisiae, UniProt Q12315); experiment: isothermal titration calorimetry; type: binding
T2 construct: E. coli; His6 tag cleaved with PreScission; with Nucleoporin NUP42
T2 sequence (Q12315 243-538): T1 sequence (Q12315 243-538)
T2 sequence (P49686 397-430 partner): T1 sequence (P49686 397-430 partner)

S. cerevisiae Gle1^CTD = molecular target: T3, S. cerevisiae Gle1^CTD (Saccharomyces cerevisiae, UniProt Q12315); experiment: differential scanning fluorimetry; type: binding; conditions: Tm without to with IP6 (25 µM); no Nup42; 20 mM Tris pH 8.0, 100 mM NaCl, 5 mM DTT
T3 construct: C-terminal domain alone (borders in supplement); His6-scGle1CTD from E. coli, tag cleaved
T3 sequence (Q12315 243-538): T1 sequence (Q12315 243-538)

[3] = molecular target: T4, C. thermophilum Gle1^CTD•Nup42^GBM (Thermochaetoides thermophila, UniProt G0S7F3); experiment: X-ray crystal structure ([…] Å); type: binding; conditions: pH 6.3 MES, zinc sulfate; pocket on Gle1
T4 construct: E. coli; tags cleaved; with Nucleoporin NUP42
T4 sequence (G0S381 441-557): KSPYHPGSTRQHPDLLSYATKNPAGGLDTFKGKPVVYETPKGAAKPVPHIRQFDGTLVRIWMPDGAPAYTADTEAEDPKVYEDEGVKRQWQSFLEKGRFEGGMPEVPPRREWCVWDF
T4 sequence (G0S7F3 216-529): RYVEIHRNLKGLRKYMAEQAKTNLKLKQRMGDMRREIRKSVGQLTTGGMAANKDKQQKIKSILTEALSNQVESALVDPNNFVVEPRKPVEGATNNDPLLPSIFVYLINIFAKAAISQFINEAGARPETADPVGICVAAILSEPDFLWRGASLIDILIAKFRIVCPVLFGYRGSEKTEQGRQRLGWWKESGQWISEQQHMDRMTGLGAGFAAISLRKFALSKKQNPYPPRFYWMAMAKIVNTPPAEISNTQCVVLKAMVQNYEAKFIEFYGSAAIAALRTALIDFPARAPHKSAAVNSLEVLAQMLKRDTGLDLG

[4] = molecular target: T5, Nup155 C-terminal domain (Nup155^CTD, residues 870–1391) (human, UniProt O75694 870-1391); experiment: SEC; Superdex 200 10/300 GL; 20 mM TRIS (pH 8.0), 100 mM NaCl, 5 mM DTT; proteins mixed and incubated 30 min on ice, twofold molar excess of the smaller component; fractions on Coomassie-stained SDS-PAGE; conditions: both partners purified
T5 construct: human Nup155, C-terminal domain, residues 870-1391; also called His6-Nup155^CTD; source: E. coli BL21-CodonPlus(DE3)-RIL, purified (Ni-NTA, HiTrap Q, Superdex 200); not shown: His6, N-terminal, cleaved
T5 sequence (looked up): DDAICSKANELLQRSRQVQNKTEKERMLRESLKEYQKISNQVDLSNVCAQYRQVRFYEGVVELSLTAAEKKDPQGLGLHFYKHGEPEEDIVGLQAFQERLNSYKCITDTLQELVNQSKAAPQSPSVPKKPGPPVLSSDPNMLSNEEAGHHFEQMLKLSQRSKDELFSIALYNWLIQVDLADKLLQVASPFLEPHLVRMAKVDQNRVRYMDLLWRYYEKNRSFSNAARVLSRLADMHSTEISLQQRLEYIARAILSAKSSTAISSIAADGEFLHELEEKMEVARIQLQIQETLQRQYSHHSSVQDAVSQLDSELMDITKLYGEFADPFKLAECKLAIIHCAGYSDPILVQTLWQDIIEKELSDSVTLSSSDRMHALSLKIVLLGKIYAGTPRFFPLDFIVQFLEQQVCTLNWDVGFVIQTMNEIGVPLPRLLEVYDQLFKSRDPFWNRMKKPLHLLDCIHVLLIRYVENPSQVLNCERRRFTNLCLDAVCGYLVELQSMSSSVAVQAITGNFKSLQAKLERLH

GST-Nup155^CTD = molecular target: T6, GST-Nup155^CTD (human, UniProt O75694 870-1391); experiment: pull-down; GST-Nup155^CTD (20 μM) preincubated with a twofold molar ratio of Nup98^ΔFG or SUMO-Gle1^N, then with 0-8-fold molar ratios of the other protein; Glutathione Sepharose beads; 20 mM TRIS (pH 8.0), 100 mM NaCl, 5 mM DTT; conditions: both partners purified
T6 construct: human Nup155, C-terminal domain, residues 870-1391; Limits are those printed for Nup155^CTD; source: E. coli BL21-CodonPlus(DE3)-RIL, purified (Glutathione Sepharose, HiTrap Q, Superdex 200); not shown: GST, N-terminal, kept
T6 sequence (looked up): T5 sequence (looked up)

H. sapiens DDX19 = molecular target: T7, H. sapiens DDX19 (human, UniProt Q9UMR2 1-479); experiment: SEC; human DDX19 with Gle1^CTD•Nup42^GBM, without and with 0.5 mM IP6 (IP6 partially reduced complex formation); 20 mM TRIS (pH 8.0), 100 mM NaCl, 5 mM DTT; conditions: both partners purified
T7 construct: human DEAD-box helicase DDX19 (the printed residue numbers run to 479); also called hsDDX19; wild-type DDX19; source: E. coli BL21-CodonPlus(DE3)-RIL, purified (Ni-NTA, HiTrap Q, Superdex 200); not shown: His6, N-terminal, cleaved
T7 sequence (looked up): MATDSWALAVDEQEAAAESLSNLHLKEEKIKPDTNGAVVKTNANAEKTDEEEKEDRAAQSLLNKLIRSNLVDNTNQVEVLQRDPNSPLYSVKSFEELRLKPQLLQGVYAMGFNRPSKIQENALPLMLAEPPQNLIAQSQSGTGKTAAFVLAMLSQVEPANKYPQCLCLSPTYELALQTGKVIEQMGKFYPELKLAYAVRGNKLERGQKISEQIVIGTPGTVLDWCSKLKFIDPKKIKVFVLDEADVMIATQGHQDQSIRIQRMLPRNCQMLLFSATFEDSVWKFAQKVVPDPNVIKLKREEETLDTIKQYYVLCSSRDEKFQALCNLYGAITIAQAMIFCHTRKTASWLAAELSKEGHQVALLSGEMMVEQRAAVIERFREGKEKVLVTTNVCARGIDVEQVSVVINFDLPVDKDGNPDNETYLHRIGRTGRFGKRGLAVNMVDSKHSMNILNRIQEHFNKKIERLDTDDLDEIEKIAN

[5] = molecular target: T8, H. sapiens DDX19^∆N53 (residues 54–479) (human, UniProt Q9UMR2 54-479); experiment: crystal structure; H. sapiens Gle1^CTD•Nup42^GBM•DDX19^∆N53, reconstituted from equimolar purified Gle1^CTD•Nup42^GBM and DDX19^∆N53; with ADP 3.6 Å or AMP-PNP•Mg^2+ 3.4 Å; conditions: both partners purified
T8 construct: human DEAD-box helicase DDX19 without the flexible N-terminal extension, residues 54-479; source: E. coli BL21-CodonPlus(DE3)-RIL, purified (Ni-NTA, HiTrap Q, Superdex 200); not shown: His6, N-terminal, cleaved
T8 sequence (looked up): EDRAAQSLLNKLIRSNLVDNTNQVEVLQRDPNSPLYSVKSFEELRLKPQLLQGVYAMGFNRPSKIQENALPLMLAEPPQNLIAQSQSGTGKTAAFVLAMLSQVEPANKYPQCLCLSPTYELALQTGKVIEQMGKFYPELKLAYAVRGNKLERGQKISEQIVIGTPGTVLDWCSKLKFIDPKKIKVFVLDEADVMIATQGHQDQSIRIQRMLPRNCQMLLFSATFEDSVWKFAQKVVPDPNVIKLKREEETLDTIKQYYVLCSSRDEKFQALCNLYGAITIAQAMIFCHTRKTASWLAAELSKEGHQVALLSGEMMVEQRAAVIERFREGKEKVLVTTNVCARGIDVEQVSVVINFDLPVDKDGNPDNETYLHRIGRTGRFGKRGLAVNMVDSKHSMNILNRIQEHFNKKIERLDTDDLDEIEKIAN

DDX19 (wild type) = molecular target: T9, DDX19 (wild type) (Homo sapiens, UniProt Q9UMR2 1-479); experiment: EMSA; + 1 uM Gle1CTD(382-698)•Nup42GBM(379-423): binding enhanced; 1 mM AMP-PNP, 2 mM MgCl2; 20 mM TRIS pH 8.0, 100 mM NaCl, 2 mM MgCl2, 1 mM DTT, 10% glycerol, 1 mM AMP-PNP; 25 ng RNA in 10 ul; 20 min on ice; 1.4% native agarose gel, 0.25x TBE, room temperature; conditions: protein: recombinant; tags: His6 removed by PreScission protease; label: none (SYBR gold stain); single strand
T9 sequence: T7 sequence (looked up)

**Q.** How did the “size exclusion chromatography, complex formation” value [1] turn out when `O=P(O)(O)O[C@H]1[C@H](OP(=O)(O)O)[C@@H](OP(=O)(O)O)[C@H](OP(=O)(O)O)[C@@H](OP(=O)(O)O)[C@H]1OP(=O)(O)O` [IP6] was run?
**A.** The value was “Dbp5 and Gle1^CTD•Nup42^GBM only formed a complex in the presence of IP6”.

**Q.** What about the Kd [2] of the same molecule?
**A.** The Kd was roughly 3 nM.

**Q.** What about the Tm (S. cerevisiae Gle1^CTD) of the same molecule?
**A.** Its Tm is 22 to 37 °C.

**Q.** And the “X-ray crystal structure (2.17 Å)” value [3]?
**A.** Its value is “IP6 binds to C. thermophilum Gle1^CTD and to S. cerevisiae Gle1^CTD in a similar orientation”.

B1: Nup98 lacking the FG repeat region (Nup98^∆FG, residues 498–880) (domain or fragment, human, UniProt P52948 498-880, looked up)
chain: QAVLQQHINSLTYSPFGDSPLFRNPMSDPKKKEERLKPTNPAAQKALTTPTHYKLTPRPATRVRPKALQTTGTAKSHLFDGLDDDEPSLANGAFMPKKSIKKLVLKNLNNSNLFSPVNRDSENLASPSEYPENGERFSFLSKPVDENHQQDGDEDSLVSHFYTNPIAKPIPQTPESAGNKHSNSNSVDDTIVALNMRAALRNGLEGSSEETSFHDESLQDDREEIENNSYHMHPAGIILTKVGYYTIPSMDDLAKITNEKGECIVSDFTIGRKGYGSIYFEGDVNLTNLNLDDIVHIRRKEVVVYLDDNQKPPVGEGLNRKAEVTLDGVWPTDKTSRCLIKSPDRLADINYEGRLEAVSRKQGAQFKEYRPETGSWVFKVSHF
notes: human Nup98, construct lacking the FG repeat region, residues 498-880; also called Nup98^ΔFG; His6-SUMO-Nup98^∆FG; source: E. coli BL21-CodonPlus(DE3)-RIL, purified (Ni-NTA, HiTrap Q, Superdex 200); not shown: His6, N-terminal, cleaved; SUMO, N-terminal, cleaved
**Q.** Does B1 bind [4]?
**A.** Result: binds

**Q.** Does B1 bind (GST-Nup155^CTD)?
**A.** Result: binds

B2: H. sapiens Gle1^CTD•Nup42^GBM complex (complex, human)
chain 1: VQDITMQWYQQLQDASMQCVLTFEGLTNSKDSQAKKIKMDLQKAATIPVSQISTIAGSKLKEIFDKIHSLLSGKPVQSGGRSVSVTLNPQGLDFVQYKLAEKFVKQGEEEVASHHEAAFPIAVVASGIWELHPRVGDLILAHLHKKCPYSVPFYPTFKEGMALEDYQRMLGYQVKDSKVEQQDNFLKRMSGMIRLYAAIIQLRWPYGNRQEIHPHGLNHGWRWLAQILNMEPLSDVTATLLFDFLEVCGNALMKQYQVQFWKMLILIKEDYFPRIEAITSSGQMGSFIRLKQFLEKCLQHKDIPVPKGFLTSSFWRS
chain 2: IIATDNVLFTPRDKLTVEELEQFQSKKFTLGKIPLKPPPLELLNV
notes: human Gle1 (splice variant Gle1B), C-terminal domain, residues 382-698; Chains as m16 and m17; also called hsGle1^CTD•His6-hsNup42^GBM; source: E. coli BL21-CodonPlus(DE3)-RIL, co-expressed, purified (Ni-NTA, heparin, Superdex 75); not shown: His6, N-terminal, cleaved
**Q.** Does B2 bind (H. sapiens DDX19)?
**A.** Result: binds

**Q.** Does B2 bind [5]?
**A.** Result: binds

B3: H. sapiens Gle1 C-terminal domain (Gle1^CTD, residues 382–698) (domain or fragment, human, UniProt Q53GS7 382-698, looked up)
chain: B2 chain 1
notes: human Gle1 (splice variant Gle1B), C-terminal domain, residues 382-698; also called hsGle1^CTD; source: E. coli BL21-CodonPlus(DE3)-RIL, co-expressed with His6-hsNup42^GBM, purified (Ni-NTA, heparin, Superdex 75)
**Q.** Which results are given for B3?
**A.** binding result (H. sapiens DDX19): binds; binding result [5]: binds

B4: SUMO-Gle1^N (SUMO fusion of human Gle1 residues 2–33) (domain or fragment, UniProt Q53GS7 2-33, looked up)
chain: PSEGRCWETLKALRSSDKGRLCYYRDWLLRRE
notes: human Gle1 (splice variant Gle1B), N-terminal residues 2-33; No cleavage of the His6-SUMO tag is described for this construct; also called His6-SUMO-hsGle1^N; source: E. coli BL21-CodonPlus(DE3)-RIL, purified (Ni-NTA, HiTrap Q, Superdex 200); not shown: SUMO, N-terminal, kept
**Q.** What does the source list for B4?
**A.** binding result [4]: binds; binding result (GST-Nup155^CTD): binds

B5: 53-nt ssRNA probe (ssRNA)
RNA: GUUUUUUUUUUUUUUUUUUUUCUCGAUCCGUAGUGAUCUACUGAGCAUCUCCC
**Q.** Does B5 bind (DDX19 (wild type))?
**A.** Result: binds
